The target of assay [1] is T1, His-LXRα/FLAG-RXRα heterodimer (ligand binding domains of human LXRα and human RXRα) (human, UniProt Q13133 164-447; P19793 201-462).
T1 construct: Co-expressed in E. coli BL21(DE3) from pET15b-LXRα/FLAG-RXRα and purified together on Ni2+ resin; also called His-LXRα and FLAG-RXRα; heterodimer comprising LXRα and RXRα
T1 sequence 1: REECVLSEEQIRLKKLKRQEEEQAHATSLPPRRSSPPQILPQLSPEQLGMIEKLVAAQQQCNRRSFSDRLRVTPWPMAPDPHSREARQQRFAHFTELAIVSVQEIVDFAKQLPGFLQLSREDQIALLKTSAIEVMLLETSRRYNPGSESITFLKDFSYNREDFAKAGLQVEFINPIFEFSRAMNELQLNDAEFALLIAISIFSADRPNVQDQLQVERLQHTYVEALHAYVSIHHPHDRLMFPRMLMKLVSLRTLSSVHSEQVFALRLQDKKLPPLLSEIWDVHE
T1 sequence 2: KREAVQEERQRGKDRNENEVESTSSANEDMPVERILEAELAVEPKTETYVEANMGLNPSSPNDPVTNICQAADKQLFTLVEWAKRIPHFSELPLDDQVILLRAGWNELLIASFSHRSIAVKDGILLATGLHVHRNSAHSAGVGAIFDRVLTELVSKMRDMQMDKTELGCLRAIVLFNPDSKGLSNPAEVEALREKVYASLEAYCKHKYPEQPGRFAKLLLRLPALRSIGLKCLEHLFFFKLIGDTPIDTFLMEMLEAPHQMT
Kind of assay: FRET (665/620 nm), anti-His tag antibody + streptavidin, biotinylated peptide; with Compound B, relative to DMSO-only control.

The target in assay [2] is T1, His-LXRα/FLAG-RXRα heterodimer (ligand …). The assay can be described thus: FRET (665/620 nm), anti-His tag antibody + streptavidin, biotinylated peptide; with Compound A, relative to DMSO-only control.
Assay [3] shares this target. The assay can be described thus: FRET (665/620 nm), anti-His tag antibody + streptavidin, biotinylated peptide; with Compound B, relative to DMSO-only control. Here is the method:
(§1) Next, 10 μl of peptide reaction solution (1.00 μl of 5 μM peptide, 1.00 μl of 10× PBS, 2.50 μl of 2 M KF, 0.10 μl of 10% NP40, 0.20 μl of streptavidin (CIS Bio International) and 5.20 μl of H₂O) were added to each well of the 384-well assay plate and incubated for 17 hours at 4° C. The peptide added here was comprising of any of the amino acid sequences of (a) to (g) below, and the amino acid of the N-terminal was biotinylated.
(§2) The value obtained by multiplying 1000 by the value resulting from dividing the measured value at 665 nm when applying excitation light at 337 nm by the measured value at 620 nm was determined. This value was then divided by the value determined by the same method when only DMSO was added without adding LXR ligand (Compound A or Compound B), and this value was then multiplied by 100 and indicated as the percentage relative to the control (% of control) as shown in Table 6.
(§3) (1) According to the same method as Example 2) (using the following peptides (h) to (m), instead of the peptides (a) to (g) in Example 2), the amount of coactivator bound to the heterodimer LXRα and RXRα were determined.
The source holds these as a separate data set.

The target is the same in assay [4]. The assay can be described thus: FRET (665/620 nm), anti-His tag antibody + streptavidin, biotinylated peptide; with Compound A, relative to DMSO-only control. Here is the method: as §1, §2, §3
This is another data set of the same source.

Assay [5] concerns the target T2, His-LXRβ/FLAG-RXRα heterodimer (ligand binding domains of human LXRβ and human RXRα) (human) (UniProt P55055).
T2 sequence 1: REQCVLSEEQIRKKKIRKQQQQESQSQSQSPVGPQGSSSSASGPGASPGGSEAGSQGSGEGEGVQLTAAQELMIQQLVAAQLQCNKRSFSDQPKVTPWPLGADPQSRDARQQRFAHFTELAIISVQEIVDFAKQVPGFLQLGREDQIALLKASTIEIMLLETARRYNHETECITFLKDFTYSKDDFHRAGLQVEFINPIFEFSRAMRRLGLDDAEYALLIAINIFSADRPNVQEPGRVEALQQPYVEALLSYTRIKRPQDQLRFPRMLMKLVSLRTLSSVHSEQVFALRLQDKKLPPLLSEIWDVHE
T2 sequence 2: T1 sequence 2
Kind of assay: FRET (665/620 nm), anti-His tag antibody + streptavidin, biotinylated peptide; with Compound B, relative to DMSO-only control.

Assay [6] deals with T2, His-LXRβ/FLAG-RXRα heterodimer (ligand binding domains of human LXRβ and human RXRα) (human). The assay can be described thus: FRET (665/620 nm), anti-His tag antibody + streptavidin, biotinylated peptide; with Compound A, relative to DMSO-only control.
Assay [7] deals with T3, His-LXRβ/FLAG-RXRα heterodimer (ligand binding domains of human LXRβ and human RXRα) (human, UniProt P55055 155-460; P19793 201-462, limits assumed).
T3 construct: Co-expressed in E. coli BL21(DE3) from pET15b-LXRβ/FLAG-RXRα and purified together on Ni2+ resin; also called His-LXRβ and FLAG-RXRα; heterodimer comprising LXRβ and RXRα
T3 sequence 1: T2 sequence 1
T3 sequence 2: T1 sequence 2
The assay can be described thus: FRET (665/620 nm), anti-His tag antibody + streptavidin, biotinylated peptide; with Compound B, relative to DMSO-only control.

For assay [8], the target named is T3, His-LXRβ/FLAG-RXRα heterodimer (ligand …). The assay can be described thus: FRET (665/620 nm), anti-His tag antibody + streptavidin, biotinylated peptide; with Compound A, relative to DMSO-only control.

From patent US20090098570A1 (Daiichi Sankyo, published 2009) come the findings set out here.

No end group written: not given here. *: point of attachment. Biotin = O=C1N[C@H]2[C@H](CS[C@H]2CCCCC(=O)*)N1

On to Biotin-SPAMREAPTSLSQLLDNSGAPNVTIKPPGL (also called ASC2 MR-2) [ASC-2 NR-2 peptide SPAMREAPTSLSQLLDNSGAPNVTIKPPGL (LXXLL motif on the C-terminal side of ASC-2)], for which the “% of control” value in assay [1] is 137 % of control; in assay [2], 254 % of control.

Take Biotin-KNPTSCSRRFYQLTKLLDSVQPIAR [PNRC peptide KNPTSCSRRFYQLTKLLDSVQPIAR (aa 848-872)]: the “% of control” value is 110 % of control in assay [3] and 140 % of control in assay [4].

Take Biotin-KQEPVSPKKKENALLRYLLDKDDTK [TIF2 NRB2 peptide KQEPVSPKKKENALLRYLLDKDDTK (aa 731-755)]: the entries for the “% of control” value in assay [3] and in assay [4] were 127 % of control and 268 % of control, respectively.

With Biotin-HSKASWAEFSILRELLAQDVLCD [PERC NRB2 peptide HSKASWAEFSILRELLAQDVLCD (aa 332-354)], the “% of control” value in assay [3] is 104 % of control; in assay [4] it was 127 % of control.

Consider Biotin-NKDVTLTSPLLVNLLQSDISAGHFGVNNKQ [ASC-2 NR-1 peptide … (LXXLL motif on the N-terminal side of ASC-2)], for which the % of control in assay [5] was 115 % of control; in assay [6] it was 114 % of control.

Biotin-HSKASWAEFSILRELLAQDVLCD [PERC NRB2 peptide … (aa 332-354)]: the % of control was 115 % of control in assay [5] and 104 % of control in assay [6].

With Biotin-KESKDHQLLRYLLDKDEKDL [SRC-1-3 peptide KESKDHQLLRYLLDKDEKDL (the third LXXLL motif from the N-terminal side of SRC-1)], the “% of control” value was 112 % of control in assay [1] and 181 % of control in assay [2].

Consider Biotin-SPKKKENNALLRYLLDRDDPSDALSK [ACTR NRB3 peptide SPKKKENNALLRYLLDRDDPSDALSK (aa 728-753)], for which the entries for the “% of control” value in assay [3] and in assay [4] were 92 % of control and 167 % of control, respectively.

Regarding Biotin-CPSSHSSLTERHKILHRLLQEGSPS [SRC-1-2 peptide CPSSHSSLTERHKILHRLLQEGSPS (the second LXXLL motif from the N-terminal side of SRC-1)], the “% of control” value in assay [1] was 182 % of control; in assay [2], 267 % of control.

Regarding Biotin-GHGEDFSKVSQNPILTSLLQITGNG [TRAP220 peptide … (aa 590-614)], the % of control is 116 % of control in assay [5] and 111 % of control in assay [6].

For the molecule Biotin-KQEPVSPKKKENALLRYLLDKDDTK [TIF2 NRB2 peptide … (aa 731-755)], the values for the % of control in assay [5] and in assay [6] were 124 % of control and 125 % of control, respectively.

Turning to Biotin-NKDVTLTSPLLVNLLQSDISAGHFGVNNKQ [ASC-2 NR-1 peptide NKDVTLTSPLLVNLLQSDISAGHFGVNNKQ (LXXLL motif on the N-terminal side of ASC-2)], the figures for the “% of control” value in assay [1] and in assay [2] were 116 % of control and 156 % of control, respectively.

With Biotin-CPSSHSSLTERHKILHRLLQEGSPS [SRC-1-2 peptide … (the second LXXLL motif from the N-terminal side of SRC-1)], the % of control is 119 % of control in assay [5] and 120 % of control in assay [6].

For the molecule Biotin-SPKKKENNALLRYLLDRDDPSDALSK [ACTR NRB3 peptide … (aa 728-753)], the % of control in assay [5] is 103 % of control; in assay [6], 129 % of control.

Consider Biotin-CCFCGEDHPRQGSILYSLLTSSKQT (cysteine pairing not given here) [DAX1 peptide CCFCGEDHPRQGSILYSLLTSSKQT (aa 132-156)], for which the figures for the “% of control” value in assay [3] and in assay [4] were 107 % of control and 158 % of control, respectively.

Consider Biotin-GHGEDFSKVSQNPILTSLLQITGNG [TRAP220 peptide GHGEDFSKVSQNPILTSLLQITGNG (aa 590-614)], for which the “% of control” value in assay [3] was 107 % of control; in assay [4] it was 131 % of control.

On to Biotin-CCFCGEDHPRQGSILYSLLTSSKQT (cysteine pairing not given here) [DAX1 peptide … (aa 132-156)], for which the values for the % of control in assay [5] and in assay [6] were 120 % of control and 116 % of control, respectively.

Take Biotin-HGTSLKEKHKILHRLLQDSSSPVDL [TIF2 peptide … (aa 679-703)]: the % of control in assay [5] was 114 % of control; in assay [6], 108 % of control.

Biotin-KESKDHQLLRYLLDKDEKDL [SRC-1-3 peptide … (the third LXXLL motif from the N-terminal side of SRC-1)]: the results for the % of control in assay [5] and in assay [6] were 108 % of control and 111 % of control, respectively.

Biotin-HGTSLKEKHKILHRLLQDSSSPVDL [TIF2 peptide HGTSLKEKHKILHRLLQDSSSPVDL (aa 679-703)]: the figures for the “% of control” value in assay [1] and in assay [2] were 157 % of control and 267 % of control, respectively.

As to Biotin-DGTPPPQEAEEPSLLKKLLLAPANT [PGC-1α peptide DGTPPPQEAEEPSLLKKLLLAPANT (aa 130-154)], the “% of control” value in assay [1] was 207 % of control; in assay [7] it was 195 % of control; in assay [2], 362 % of control; in assay [8] it was 191 % of control.

Consider Biotin-KNPTSCSRRFYQLTKLLDSVQPIAR [PNRC peptide … (aa 848-872)], for which the figures for the % of control in assay [5] and in assay [6] were 107 % of control and 109 % of control, respectively.

Turning to Biotin-QKPTSGPQTPQAQQKSLLQQLLTE [SRC-1-4 peptide QKPTSGPQTPQAQQKSLLQQLLTE (the fourth LXXLL motif from the N-terminal side of SRC-1)], the “% of control” value in assay [1] was 128 % of control; in assay [7], 144 % of control; in assay [2], 207 % of control; in assay [8], 155 % of control.

Turning to Biotin-SPAMREAPTSLSQLLDNSGAPNVTIKPPGL [ASC-2 NR-2 peptide … (LXXLL motif on the C-terminal side of ASC-2)], the % of control was 116 % of control in assay [5] and 120 % of control in assay [6].
